Test results published in patent US20140087995A1 (published 2014).
Numbered stars: 1 amine (or outer) side, 2 acyl side, 3 side chain; on linkers, the order of the positions; unused ones are H or OH. Bridge positions count the residues as written; N and C are the ends. Side chains are listed from the residue outwards. Ends that are not written are not given here. * marks the point of attachment. C20 diacid = O=C(O)CCCCCCCCCCCCCCCCCCC(=O)*; γGlu = O=C(O)[C@H](CCC(=O)[*:2])N[*:1]

T1: human calcitonin receptor (human, UniProt P30988 25-474)
T1 construct: whole, on cells; Assay used cell membranes, not intact cells; also called hCTR; hCT
T1 sequence (looked up): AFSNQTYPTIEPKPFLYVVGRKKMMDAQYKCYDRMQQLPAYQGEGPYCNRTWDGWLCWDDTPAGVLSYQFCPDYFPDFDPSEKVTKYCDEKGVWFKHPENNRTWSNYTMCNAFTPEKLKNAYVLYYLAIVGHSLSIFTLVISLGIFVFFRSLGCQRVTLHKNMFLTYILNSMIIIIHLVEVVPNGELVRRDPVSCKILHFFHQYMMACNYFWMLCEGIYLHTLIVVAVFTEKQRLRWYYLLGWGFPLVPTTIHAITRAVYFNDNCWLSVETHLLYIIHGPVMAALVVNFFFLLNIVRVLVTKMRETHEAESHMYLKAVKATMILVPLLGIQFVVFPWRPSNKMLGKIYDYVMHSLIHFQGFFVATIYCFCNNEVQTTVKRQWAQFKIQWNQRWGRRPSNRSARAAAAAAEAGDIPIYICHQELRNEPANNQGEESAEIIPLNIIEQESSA

T2: human amylin receptor (amylin 3(a) receptor: human calcitonin receptor with RAMP-3) (human, UniProt P30988 25-474; O60896 24-148)
T2 construct: whole, on cells; Assay used cell membranes of the Amylin 3(a)/CRE-luc BHK cells, not intact cells; also called hAmylin-R; hAmylinR
T2 sequence (looked up) 1: T1 sequence (looked up)
T2 sequence (looked up) 2: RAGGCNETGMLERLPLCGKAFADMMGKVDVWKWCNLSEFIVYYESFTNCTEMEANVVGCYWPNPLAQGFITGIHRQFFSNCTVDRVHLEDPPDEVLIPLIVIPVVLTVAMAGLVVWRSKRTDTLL

B1: N^ε1-[(4S)-4-carboxy-4-(19-carboxynonadecanoylamino)butanoyl]-[His14,Arg17,Pro21,Pro27,Pro31,Pro34]-h-amylin (peptide)
peptide: K([γGlu-C20 diacid])CNTATCATQRLAHFLRHSSPNFGAIPSSTPVGPNTY-NH2
modifications: disulfide 2-7; N-terminus assumed
SMILES: CC[C@H](C)[C@H](NC(=O)[C@H](C)NC(=O)CNC(=O)[C@H](Cc1ccccc1)NC(=O)[C@H](CC(N)=O)NC(=O)[C@@H]1CCCN1C(=O)[C@H](CO)NC(=O)[C@H](CO)NC(=O)[C@H](Cc1c[nH]cn1)NC(=O)[C@H](CCCNC(=N)N)NC(=O)[C@H](CC(C)C)NC(=O)[C@H](Cc1ccccc1)NC(=O)[C@H](Cc1c[nH]cn1)NC(=O)[C@H](C)NC(=O)[C@H](CC(C)C)NC(=O)[C@H](CCCNC(=N)N)NC(=O)[C@H](CCC(N)=O)NC(=O)[C@@H](NC(=O)[C@H](C)NC(=O)[C@@H]1CSSC[C@H](NC(=O)[C@@H](N)CCCCNC(=O)CC[C@H](NC(=O)CCCCCCCCCCCCCCCCCCC(=O)O)C(=O)O)C(=O)N[C@@H](CC(N)=O)C(=O)N[C@@H]([C@@H](C)O)C(=O)N[C@@H](C)C(=O)N[C@@H]([C@@H](C)O)C(=O)N1)[C@@H](C)O)C(=O)N1CCC[C@H]1C(=O)N[C@@H](CO)C(=O)N[C@@H](CO)C(=O)N[C@H](C(=O)N1CCC[C@H]1C(=O)N[C@H](C(=O)NCC(=O)N1CCC[C@H]1C(=O)N[C@@H](CC(N)=O)C(=O)N[C@H](C(=O)N[C@@H](Cc1ccc(O)cc1)C(N)=O)[C@@H](C)O)C(C)C)[C@@H](C)O
B2: N^ε1-[(4S)-4-carboxy-4-[[(4S)-4-carboxy-4-(19-carboxynonadecanoylamino)butanoyl]amino]butanoyl]-[Asp14,Arg17,Pro21,Pro27,Pro34,Arg35]-h-amylin (peptide)
peptide: K([γGlu-γGlu-C20 diacid])CNTATCATQRLADFLRHSSPNFGAIPSSTNVGPRTY-NH2
modifications: disulfide 2-7; N-terminus assumed
SMILES: CC[C@H](C)[C@H](NC(=O)[C@H](C)NC(=O)CNC(=O)[C@H](Cc1ccccc1)NC(=O)[C@H](CC(N)=O)NC(=O)[C@@H]1CCCN1C(=O)[C@H](CO)NC(=O)[C@H](CO)NC(=O)[C@H](Cc1c[nH]cn1)NC(=O)[C@H](CCCNC(=N)N)NC(=O)[C@H](CC(C)C)NC(=O)[C@H](Cc1ccccc1)NC(=O)[C@H](CC(=O)O)NC(=O)[C@H](C)NC(=O)[C@H](CC(C)C)NC(=O)[C@H](CCCNC(=N)N)NC(=O)[C@H](CCC(N)=O)NC(=O)[C@@H](NC(=O)[C@H](C)NC(=O)[C@@H]1CSSC[C@H](NC(=O)[C@@H](N)CCCCNC(=O)CC[C@H](NC(=O)CC[C@H](NC(=O)CCCCCCCCCCCCCCCCCCC(=O)O)C(=O)O)C(=O)O)C(=O)N[C@@H](CC(N)=O)C(=O)N[C@@H]([C@@H](C)O)C(=O)N[C@@H](C)C(=O)N[C@@H]([C@@H](C)O)C(=O)N1)[C@@H](C)O)C(=O)N1CCC[C@H]1C(=O)N[C@@H](CO)C(=O)N[C@@H](CO)C(=O)N[C@H](C(=O)N[C@@H](CC(N)=O)C(=O)N[C@H](C(=O)NCC(=O)N1CCC[C@H]1C(=O)N[C@@H](CCCNC(=N)N)C(=O)N[C@H](C(=O)N[C@@H](Cc1ccc(O)cc1)C(N)=O)[C@@H](C)O)C(C)C)[C@@H](C)O
notes: also called compound 130
B3: N^ε1-[(4S)-4-carboxy-4-[[(4S)-4-carboxy-4-(19-carboxynonadecanoylamino)butanoyl]amino]butanoyl]-[Arg17,Pro21,Pro27,His34]-h-amylin (peptide)
peptide: K([γGlu-γGlu-C20 diacid])CNTATCATQRLANFLRHSSPNFGAIPSSTNVGHNTY-NH2
modifications: disulfide 2-7; N-terminus assumed
SMILES: CC[C@H](C)[C@H](NC(=O)[C@H](C)NC(=O)CNC(=O)[C@H](Cc1ccccc1)NC(=O)[C@H](CC(N)=O)NC(=O)[C@@H]1CCCN1C(=O)[C@H](CO)NC(=O)[C@H](CO)NC(=O)[C@H](Cc1c[nH]cn1)NC(=O)[C@H](CCCNC(=N)N)NC(=O)[C@H](CC(C)C)NC(=O)[C@H](Cc1ccccc1)NC(=O)[C@H](CC(N)=O)NC(=O)[C@H](C)NC(=O)[C@H](CC(C)C)NC(=O)[C@H](CCCNC(=N)N)NC(=O)[C@H](CCC(N)=O)NC(=O)[C@@H](NC(=O)[C@H](C)NC(=O)[C@@H]1CSSC[C@H](NC(=O)[C@@H](N)CCCCNC(=O)CC[C@H](NC(=O)CC[C@H](NC(=O)CCCCCCCCCCCCCCCCCCC(=O)O)C(=O)O)C(=O)O)C(=O)N[C@@H](CC(N)=O)C(=O)N[C@@H]([C@@H](C)O)C(=O)N[C@@H](C)C(=O)N[C@@H]([C@@H](C)O)C(=O)N1)[C@@H](C)O)C(=O)N1CCC[C@H]1C(=O)N[C@@H](CO)C(=O)N[C@@H](CO)C(=O)N[C@H](C(=O)N[C@@H](CC(N)=O)C(=O)N[C@H](C(=O)NCC(=O)N[C@@H](Cc1c[nH]cn1)C(=O)N[C@@H](CC(N)=O)C(=O)N[C@H](C(=O)N[C@@H](Cc1ccc(O)cc1)C(N)=O)[C@@H](C)O)C(C)C)[C@@H](C)O
notes: also called compound 86
B4: N^ε1-[(4S)-4-carboxy-4-[[(4S)-4-carboxy-4-(19-carboxynonadecanoylamino)butanoyl]amino]butanoyl]-[Asp14,Arg17,Pro21,Pro27,Pro34,Glu35]-h-amylin (peptide)
peptide: K([γGlu-γGlu-C20 diacid])CNTATCATQRLADFLRHSSPNFGAIPSSTNVGPETY-NH2
modifications: disulfide 2-7; N-terminus assumed
SMILES: CC[C@H](C)[C@H](NC(=O)[C@H](C)NC(=O)CNC(=O)[C@H](Cc1ccccc1)NC(=O)[C@H](CC(N)=O)NC(=O)[C@@H]1CCCN1C(=O)[C@H](CO)NC(=O)[C@H](CO)NC(=O)[C@H](Cc1c[nH]cn1)NC(=O)[C@H](CCCNC(=N)N)NC(=O)[C@H](CC(C)C)NC(=O)[C@H](Cc1ccccc1)NC(=O)[C@H](CC(=O)O)NC(=O)[C@H](C)NC(=O)[C@H](CC(C)C)NC(=O)[C@H](CCCNC(=N)N)NC(=O)[C@H](CCC(N)=O)NC(=O)[C@@H](NC(=O)[C@H](C)NC(=O)[C@@H]1CSSC[C@H](NC(=O)[C@@H](N)CCCCNC(=O)CC[C@H](NC(=O)CC[C@H](NC(=O)CCCCCCCCCCCCCCCCCCC(=O)O)C(=O)O)C(=O)O)C(=O)N[C@@H](CC(N)=O)C(=O)N[C@@H]([C@@H](C)O)C(=O)N[C@@H](C)C(=O)N[C@@H]([C@@H](C)O)C(=O)N1)[C@@H](C)O)C(=O)N1CCC[C@H]1C(=O)N[C@@H](CO)C(=O)N[C@@H](CO)C(=O)N[C@H](C(=O)N[C@@H](CC(N)=O)C(=O)N[C@H](C(=O)NCC(=O)N1CCC[C@H]1C(=O)N[C@@H](CCC(=O)O)C(=O)N[C@H](C(=O)N[C@@H](Cc1ccc(O)cc1)C(N)=O)[C@@H](C)O)C(C)C)[C@@H](C)O
B5: N^ε1-[(4S)-4-carboxy-4-[[(4S)-4-carboxy-4-(19-carboxynonadecanoylamino)butanoyl]amino]butanoyl]-[Arg17,Pro21,Pro27,Pro31,Pro34,Arg35]-h-amylin (peptide)
peptide: K([γGlu-γGlu-C20 diacid])CNTATCATQRLANFLRHSSPNFGAIPSSTPVGPRTY-NH2
modifications: disulfide 2-7; N-terminus assumed
SMILES: CC[C@H](C)[C@H](NC(=O)[C@H](C)NC(=O)CNC(=O)[C@H](Cc1ccccc1)NC(=O)[C@H](CC(N)=O)NC(=O)[C@@H]1CCCN1C(=O)[C@H](CO)NC(=O)[C@H](CO)NC(=O)[C@H](Cc1c[nH]cn1)NC(=O)[C@H](CCCNC(=N)N)NC(=O)[C@H](CC(C)C)NC(=O)[C@H](Cc1ccccc1)NC(=O)[C@H](CC(N)=O)NC(=O)[C@H](C)NC(=O)[C@H](CC(C)C)NC(=O)[C@H](CCCNC(=N)N)NC(=O)[C@H](CCC(N)=O)NC(=O)[C@@H](NC(=O)[C@H](C)NC(=O)[C@@H]1CSSC[C@H](NC(=O)[C@@H](N)CCCCNC(=O)CC[C@H](NC(=O)CC[C@H](NC(=O)CCCCCCCCCCCCCCCCCCC(=O)O)C(=O)O)C(=O)O)C(=O)N[C@@H](CC(N)=O)C(=O)N[C@@H]([C@@H](C)O)C(=O)N[C@@H](C)C(=O)N[C@@H]([C@@H](C)O)C(=O)N1)[C@@H](C)O)C(=O)N1CCC[C@H]1C(=O)N[C@@H](CO)C(=O)N[C@@H](CO)C(=O)N[C@H](C(=O)N1CCC[C@H]1C(=O)N[C@H](C(=O)NCC(=O)N1CCC[C@H]1C(=O)N[C@@H](CCCNC(=N)N)C(=O)N[C@H](C(=O)N[C@@H](Cc1ccc(O)cc1)C(N)=O)[C@@H](C)O)C(C)C)[C@@H](C)O

The binders below were run against T1, human calcitonin receptor (assay: ratio IC50 hCTR / IC50 hAmylin-R (reference: human amylin receptor), SPA competition assays).
How it was run: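 Competition binding by SPA with cell membranes (35 ng/μL) and SPA beads in 50 mM Hepes pH 7.4 with 1 mM CaCl2, 5 mM MgCl2, 0.1% OA and 0.02% Tween20. Incubated 120 min at 25 °C with shaking, then counted.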

Row | Ratio hCT/hAmylin binding | Binder
1 | 24.8 | B1
2 | 280 | B2
3 | 159 | B3
4 | 49.8 | B4
5 | 48.6 | B5

Each binder was assayed against T1, human calcitonin receptor (assay: SPA competition with 125I-calcitonin on membranes of BHK cells with human calcitonin receptor (Assay VII)).
How it was run: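 BHK hCTR membranes 35 ng/μL + SPA beads 0.05 mg/well; buffer 50 mM Hepes pH 7.4, 1 mM CaCl2, 5 mM MgCl₂, 0.1% OA, 0.02% Tween20. 120 min, 25° C., shaking. Scintillation count; IC50 by one-site binding competition.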

Row | IC50 | Binder
6 | 2.04 nM | B1
7 | 127 nM | B2
8 | 133 nM | B3
9 | 8.56 nM | B4
10 | 42.8 nM | B5

The binders below were run against T2, human amylin receptor (amylin 3(a) …) (assay: SPA competition with 125I-rat amylin on membranes of BHK cells with human calcitonin receptor and RAMP-3 (Assay V)).
How it was run: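 SPA beads with BHK Amylin 3(a)/CRE-luc cell membranes (35 ng/μL final) in 50 mM Hepes pH 7.4, 1 mM CaCl2, 5 mM MgCl₂, 0.1% OA, 0.02% Tween20.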

Row | IC50 | Binder
11 | 0.082 nM | B1
12 | 0.453 nM | B2
13 | 0.833 nM | B3
14 | 0.172 nM | B4
15 | 0.88 nM | B5
